How the values were obtained:
[1] = rat
[2] = test system: blood glucose levels; experiment: Blood glucose lowering pharmacodynamics in rats (Amplex Red Glucose/Glucose Oxidase Assay); type: in vivo; settings: intravenous administration (FIG. 6)
Protocol: Blood glucose levels were determined in rats injected with free glucose and the conjugates using the Amplex Red Glucose/Glucose Oxidase Assay Kit (Invitrogen, Carlsbad, Calif., Cat. No. A22189).

20K-PEG-insulin: 20 kD PEG-NHS conjugated to human insulin, one 20 kD PEG; benchmark therapeutic (see EP2288375)
in vivo half life [1]: improved the in vivo half life
blood glucose lowering ability in vivo [2]: did not display significant glucose lowering ability for an extended time

VitD-(25)-PEG2K-insulin: 2 KDa PEG scaffold on carbon 25 of vitamin D, carrier conjugated to lysine 29 on the insulin B-chain
in vivo half life [1]: improved the in vivo half life
duration of stably reduced blood glucose levels [2]: approximately eight
